The nanobody polyreactivity screen of Harvey et al. (2022)

Assay: yeast display, Sf9 membrane polyspecificity reagent, FACS + sequencing; frameworks hold sequencing errors
In short: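 Synthetic nanobody libraries on Saccharomyces cerevisiae BJ5465 were galactose-induced for 36–48 hours, stained 1 hour at 4 °C with 10% biotinylated, detergent-solubilized Sf9 membrane reagent and enriched on streptavidin microbeads. FACS then separated cells into low and high (top ~1%) gates by anti-HA (expression) and streptavidin (reagent binding) fluorescence. Genes were colony-PCR amplified, MiSeq 2 × 250 sequenced and CDR-length filtered. A clone's polyreactivity label is that of its gate of origin.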

Sequence | polyreactivity (PSR sort gate)
QVQLVESGGGLVQAGGSLRLSCAASGFIFQIYAMGWYRQAPGKERELVAAISSGGSTNYADSVKGRFTISRDNAKNTVYLQMNSLKPEDTAVYYCAAATHYWYFYSFKDKSGFRGYYWGQGTQVTVSS | high polyreactivity
QVQLVESGGGLVQAGGSLRLSCAASGSTLVVYAMGRYRQAPGIERELVAAISSIGGRPYYADSVKGRFTISRDNAKYTVYLQMNSLKPEDTAVYYCTALRYVVYFDDDYWGQGTQVTVSS | high polyreactivity
QVQLHESGGGLVQAGGSLRLGCAPSGNISHAAYMGWYRQAPGKEREFVAAIAAGSNPNYADSVKGRFTISRDNAKNTVYLQMNSLKPEDTAVFYCAVASYARVQYEYWGQGTQVTVNS | low polyreactivity
QVQLVESGGGLVQAGGSLRLSCAASGSTFGQYAMGWYRQAPGKERELVAAISRNGGRTYYADSVKGRFTISRDNAKNTVYLQMNSLKPEDTAVYYCAAGGFHYVYYRGMYYWGQGTQVTVSS | high polyreactivity
QVQLVESGGGLVQAGGSLRLSCAASGSIFFSNAMGWYRQAPGKERELVAVITYSGGGTYYADSVKGRFTISRDNAKNTVYLQMNSLKPEDTAVYYCNTDLGPDGISWHWYAYDYWGQGTQVTVSS | low polyreactivity
QVQLVESGGGLVQAGGSLRLSCAASGSIFNKNVMGWYRQAPGKERELVAAITSGGGSTYYADSVKGRFTISRDNAKNTVYLQMNSLKPEDTAVYYCAAGRGLYEYNYWGQGTQVTVSS | high polyreactivity
QVQIVESGGGLVQAGGSLRLSCAASGSTFYRNAMGWYRQAPGKEREFVATISWNGGNTYYADSVKGRFTISRDNAKNTVYLQMNSVKPEDTAVYYCDARVKYRTSGGTVVSYDYWGQGTQVTVSS | high polyreactivity
QVQLVESGGGLVQAGGSLRLSCAASGSIFSTYAMGWYRQAPGKERELVASISRRGGSTYYADSVKGRFTISRDNAKNTVYLQMNSLKPEDTAVYYCNASGGPYRFYYWGQGTQVTVSS | low polyreactivity
QVQLVESGGGLVQAGGSLRLSCAASGSIFSSYVMGWYRQAPGKERELVAAITSRGGSTYCADSVKGRFTISRDNAKNTVYFQMKSLKPEDTAVYYCAKGGTTWYWSGYRSIYFRYDYWGQGTQVTVSS | high polyreactivity
QVQLVESGGGLVQAGGSLRLSCAASGITFEVNAMGWYRQAPGKERELVAAISRSAGSTYYADSVKGRFTISRDNAKNTVYLQMISLKPEDTAVYYCATALRYARSRNRFYYWGQGTQVSVSS | high polyreactivity
QGQLVESGRGLVQAGGSLRLSCAASGRIFVIYDIGWYRQAPGKEREFVAAISWRSGSTYYADSVKGRFTISRDNAKNTVYLQMNSLKPDDTAVYDCNKDYHVRYYYWGQGTQVTVSS | low polyreactivity
QVQLVDSGGGLVQAGGSLRLSCDASGSILAQYAMGWYRQAPGKEREFVAAISRRGVRTNYADSVKGRFTISRDNAKNTDYLQMNSLKHEDTAVYYCAAALYTPSLNSAFDYWGQGTQVTVSS | high polyreactivity
QVQLVESGGGLVQAGGSLRLSCAASGFIFAYYAMGWYRQAPGKERELVAAISYNGGTTYYADSVKGRFTISRDNAKNTVYLQMNSLKPEDSAVYYCNALVHQTYYDYDYWGQGTQVTVSS | high polyreactivity
QVQLVESGGGLVQAGGCLRLSCAASGFTFWWYAMGWYRQAPGKERELVAAISSGGSTNYADSVKGRFTLSRDNAKNTVYLQMNSLQPEDTAVYYCARRLWYSDRYSARWQYDYWGQVTQVTVSS | high polyreactivity
QVQLVESGGGLVQAGGSLRLSCAASGSTFYRYAKVSYRQAPGKARELVAAITRTGGSTYADSVKGRFTISRDNAKYTDYLQMKSLKPEDTAVYYCAVQRYYVSSISPFYYWGQGTQVTVSS | low polyreactivity
QVQLVESGGGLVQAGGSLRLSCAASGFIFLQYADMGWYRQAPGKERELVAAISYIGGSTYYADSVKGRFTISRDNAKNTVYLQMNSLKPEDTAVYYCAAEYSTAFGEYYYWGQGTQVTVSS | high polyreactivity
QVQLVESGGGLVQAGGSLRLSCAASGYIFGYNAMGWYRQAAGQERELVAAITYSGGNTYYADSVKGRFTISRDNANNTVYLQMNSLKPEDTAVYYCAADFLYGAEGNEYWGQGTQVTVSS | high polyreactivity
QVQLVESGGGLVQAGGSLRLSCAASGSTFPGNAMGWYRQSPGKERELVAAISDGVRTSYADSVKGRFTISRDNAKNTVYLQMNSLKPEDTAVYYCNADFARQYDPHVLYITVGMDYWGQGTKVTVSS | low polyreactivity
QVQLVESGGGLVQAGGSLRLSCAASGSTFAVNAMGWYRQAPGKERELVAAITSGGNTYADSVKGRFTISRDNAKNTVYLQMNSLKPEDTAVYYCAAALTEVVYWIYDYWGQGTQVTVSS | low polyreactivity
QVQLVESGGGLVQAGGSLSLSCAASGSIFGTNAMGWYRQAPGKERELVAAISSSGASTYYADSVKGRFTISRDNAKNSVYLQMNSLKPEDTAVYYCARGYTYQSSSFYYWGQGTQVTVSS | low polyreactivity
QDQLVESGGGLVQAGGILRLSCAASGITFSYYTMGWYSQAPGKERELVAGITRSGSTYYADSVKGRFTISRDNAKNTVYLQMNSLKPEDTAVYYCAAEIYAFSGLYYYCGQGTQVTVSS | high polyreactivity

Sequence | polyreactivity (PSR sort gate)
QVQLVESGGGLVQAGGSLRLSCAASGRTFRVYAMGWYRQAPGKEREFVAAISYSGGRTYYADSVKGRFTISRDNAKNTVYLQMNSLKPEDTAVYYCAKRVPYGRGVTGYYWGQGTQVTVSS | high polyreactivity
QVQLVESGGGLVQAGGSLRLSCAASGRIFVYYVMGWYRQAPGKERELVAAITYSGGSTYYADSVKGRFTISRDNAKNTVYLQMNSLKPEDTAVYYCNKVDAFGIVRLYYWGQGTQVTVSS | low polyreactivity
QVQLVESGGGLVQAGGSLRLSCAASGRIFKTNAMGWYRQAPGKERELVAAITWSGTSTYYADSVKWRYTISRDNEKITVYLQMNSLKPEDTAVYYCDAKQYARKYGFWGQGTQVTVSS | high polyreactivity
QVQLVESGGGLVQAGGSLRLSCAASGSTFRGYAMGWYRQAPGKERELVAAITSDGSTNYADSVKGRFTISRDNAKNTVYLQMNSLKPEDTAVYYCNVKATRKWWDRRVYRYNYWGQGTQVTVSS | high polyreactivity
QVQLVESGGGLVQAGGSLRLSCAASGIIFTFYTMGWYRQAPGKERELVAAITWSGGSTNYADSVKGRFTISRDNAKNTVYLQMNSLKPEDTAVYYCAAQGYPQSPPWEDYWGQGTQVTVSS | low polyreactivity
QVHLVESGGGLVQAGGSLRLSCAASGSILYGNAMGWYRQAPGKERELVAAISYSGGRTYYADSVKGRFTISRDNAKNTVYLQMNSLKPEDTAVYYCAALHSGRVQNFDYWGQGTQVTVSS | high polyreactivity
QVQLVESGGGLVQAGGSLRISCAASGFTFHSYAMGWYIQAPGKERELVDAISYSGGSTYYADSVKGRFTISRDNAKNTVYLQMNSLKPEDSAVYYCAVLRYIYGYANDYWGQGTQLTVSS | low polyreactivity
QVQLVESGGGLVQAGGTLRLSCAASGSSYFYYAMGWYRQAPRKERELVADITSGGSTDYADSVKGRFTISRDNAKNTVYVQINSVNPEDSAVYYCAADDFSGYGTEYDYWGQGTQVTVSS | low polyreactivity
QVQLVESGGGLVQAGGSLRLSCAASGRISHYNAMGWYRQAPGKERELVAAISSRGGSTYYADSVKGRFTISRDIAKNTVYLQMNSLKPEDTAVYYCADTAGYWGQGTQVTVSS | high polyreactivity
QVQLVESGGGLDQAGGSLRLSCAASGFIFYSNAMGWYRQAPGKERELVAAISRGGGSTYYADSVKGRFTISRDNAKNTVYLQLNSLKPEDTAVYYCAKRRLSPQDDYWGQGTQVTLSS | high polyreactivity
QVQLVESGGGLVQAGGSLRLSCAASGSTIPYYAMGWYRQAPGKERELVATISSSGGSTYYADSVKGRFTISRDNAKNTVYLQMKSLKPEDTAVYYCAARYQTSGFRYRYGYWGQGTQVTVSS | high polyreactivity
QVQLVESGGGLVQAGGSLRLSCAASGIIFYIYTMGWYRQAPGKERELVAAINRSGSRTYYADSVKGRFTISRDNAKNTVYLQMNSLKPEDTAVYYCAAGTGSRDDYWGQGTQVTVSS | high polyreactivity
QVQLVESGGGLVQAGGSLRLSCAASGRTLWWYAMAWYRQAPGKERELVAAIDYSDGNTYYADSVKGRFTISRDNAKNTVYLQMNSLKPEDTAVYYCAAEGYYNYGSYYWGQGTQVTVSS | high polyreactivity
QVQLVESGGGFVQAGGSLRLSCAASGSTFLVYAMGWYRQAPGKERELVAVIDTGASTNYADSVKGRFTISRDNAKNTVYLQMNSLKPEDTAVYYCAAGFSYFTSVLSLDRYYYWGQGTQVTVSS | low polyreactivity
QVQHGESGGGLLQAGGSLRLSCAASGFIFGVYEMGWYRQAPGKDTELVAAIMRSGGSTYYADSVKGRFTISRDIAKNTVYLQMNSLKPEDTAVYYCAAAYTGKYRKYDYWGQGTQVTVSS | high polyreactivity
QVQLVESGGGLVQAGGSLRLSCAASGFIFVYNAMGWYRQAPGKEREFVASITWSGGRTYYADSVKGRFTISRDNAKNTVYLLMNILKPEDTAVYYCATKYPNSQGRRYDYWGKGTQVTVSS | low polyreactivity
QVQLVESGGGLVQAGGSLRLSCAASGRIFTRYTMGWYRQAPGKERELVASITSSGSSTYYADSVKGRFTISRDNAKNTVYLQMNSLKPEDTAVYYCAARSRLRYLYDYWGQGTQVTVSS | high polyreactivity
QVQLVESGGGLVQAGGSLRLSCAASGRIFKVNTMGWYRQAPGKERELVASIRGGGSTNYADSVKGRFTISRDNAKNTVYLQMNSLKPEDTAVYYCAAGTSKPTPIYGYWGQGTQVTVSS | low polyreactivity
QVQLVESGGGLVQAGGSLRLSCAASGITFYFNAMGWYRQAPGKERELVAAITFSGSSTYYADSVKGRFTISRDNAKNTVYLQMNSQKPEDSAVYYCAAYLTRYDFRWHTYYYWGLGTQVTVSS | low polyreactivity
QVQLVESGGGLVQAGGSLRLSCAASGSIFHYYGMGWYRQAPGKERELVAAISRGGSTNYADSVKGRFTISRDNAKNTVYLQMNSLKPEDTAVYYCNARTYRKAYSGYNYWGQGTQVTVSS | high polyreactivity
